Results taken from PMC6856157.

Target: V1N, hybrid peptide of the collagen domain (POG)8 and the cell penetrating peptide domain (RRG)2, without the FITC reporter
Experiment: circular dichroism; V1N/siRNA complex in Milli-Q water, 90 uM V1N and 5 uM siRNA, equilibrated 30 min at 25 °C or 37 °C; positive peak at 224 nm

## V1N, hybrid peptide of the collagen domain (POG)8 and the cell penetrating peptide domain (RRG)2, without the FITC reporter
  stoichiometry N: 3
